The source of these data is paper PMC7768908 (2020).

The test concerns the target MT1-MMP cytoplasmic tail peptide (MMP-CTP) (Homo sapiens, Fe(II)-bound). The experiment in a line: ITC.

B1: acireductone dioxygenase (Fe-HsARD) (protein)
chain: MVQAWYMDDAPGDPRQPHRPDPGRPVGLEQLRRLGVLYWKLDADKYENDPELEKIRRERNYSWMDIITICKDKLPNYEEKIKMFYEEHLHLDDEIRYILDGSGYFDVRDKEDQWIRIFMEKGDMVTLPAGIYHRFTVDEKNYTKAMRLFVGEPVWTAYNRPADHFEARGQYVKFLAQTA
In general, Kd refers to the equilibrium constant for the complex coming apart. A higher Kd goes with weaker binding. The molecule B1 yielded a dissociation constant (Kd) of about 10 µM.
